± gives the uncertainty stated by the source.
Assay: self-splicing fitness, log relative to wild type (ln ratio); higher = more splicing; Tetrahymena group I intron in knt gene, E. coli kanamycin selection, DiMSum; sequences stand for … in CUCUCU…GGAGGGAAAAGUUAUCAGGCAUGCACCUGGUAGCUAGUCUUUAAACCAAUAGAUUGCAUCGGUUUAAAAGGCAAGACCGUCAAAUUGCGGGAAAGGGGUCAACAGCCGUUCAGUACCAAGUCUCAGGGGAAACUUUGAGAUGGCCUUGCAAAGGGUAUGGUAAUAAGCUGACGGACAUGGUCCUAACCACGCAGCCAAGUCCUAAGUCAACAGAUCUUCUGUUGAUAUGGAUGCAGUUCACAGACUAAAUGUCGGUCGGGGAAGAUGUAUUCUUCUCAUAAGAUAUAGUCGGACCUCUCCUUAAUGGGAGCUAGCGGAUGAAGUGAUGCAACACUGGAGCCGCUGGGAACUAAUUUGUAUGCGAAAGUAUAUUGAUUAGUUUUGGAGUACUCGUGGUCG
In short: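 Colonies from six replicate transformations of E. coli BL21(DE3) were pooled and amplicon-sequenced on an Illumina HiSeq 2500. The library placed an intron with all eight P1ex-region nucleotides randomised inside the knt kanamycin-resistance gene on pET-22b(+), and cells grew overnight at 37°C or 30°C on LB agar with or without 25 μg/mL kanamycin (plus 100 μg/mL carbenicillin, 50 μM IPTG, 0.2% rhamnose). Fitness is the DiMSum error-weighted combination of wild-type-normalised replicate fold changes, kanamycin versus none.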

GUCCAGCAAUAUUACGGAAC
self-splicing fitness (ln) (30 °C): -1.88 ± 0.12 | self-splicing fitness (ln) (37 °C): -0.802 ± 0.11

GUCCAGCAAUAUUACGGCGC
self-splicing fitness (ln) (30 °C): -0.166 ± 0.15 | self-splicing fitness (ln) (37 °C): 0.208 ± 0.22

GUCCAGCAAUAUUACGGCGG
self-splicing fitness (ln) (30 °C): -4.63 ± 0.42 | self-splicing fitness (ln) (37 °C): -1.4 ± 0.29

GUCCAGCAAUAUUACGGGUC
self-splicing fitness (ln) (30 °C): -1.73 ± 0.13 | self-splicing fitness (ln) (37 °C): -1.7 ± 0.16

GUCCAGCAAUAUUACGGUAA
self-splicing fitness (ln) (30 °C): -0.283 ± 0.086 | self-splicing fitness (ln) (37 °C): 0.647 ± 0.079

GUCCAGCAAUAUUACGUCCA
self-splicing fitness (ln) (30 °C): -1.12 ± 0.077 | self-splicing fitness (ln) (37 °C): -0.579 ± 0.079

GUCCAGCAAUAUUACGUGUG
self-splicing fitness (ln) (30 °C): -1.14 ± 0.064 | self-splicing fitness (ln) (37 °C): -0.529 ± 0.068

GUCCAGCAAUAUUACGUUAG
self-splicing fitness (ln) (30 °C): -3.15 ± 0.11 | self-splicing fitness (ln) (37 °C): -1.19 ± 0.095

GUCCAGCAAUAUUACGUUAU
self-splicing fitness (ln) (30 °C): -0.827 ± 0.058 | self-splicing fitness (ln) (37 °C): 0.329 ± 0.07

GUCGAGCAAUAUUACGAGGG
self-splicing fitness (ln) (37 °C): -1.04 ± 0.21

GUCGAGCAAUAUUACGAUGA
self-splicing fitness (ln) (30 °C): -1.6 ± 0.15 | self-splicing fitness (ln) (37 °C): -0.827 ± 0.14

GUCGAGCAAUAUUACGCAGG
self-splicing fitness (ln) (37 °C): -3.05 ± 0.38

GUCGAGCAAUAUUACGCCCC
self-splicing fitness (ln) (30 °C): -1.19 ± 0.37 | self-splicing fitness (ln) (37 °C): -1.01 ± 0.31

GUCGAGCAAUAUUACGCCGG
self-splicing fitness (ln) (37 °C): -1.99 ± 0.41

GUCGAGCAAUAUUACGCCGU
self-splicing fitness (ln) (30 °C): -1.32 ± 0.3 | self-splicing fitness (ln) (37 °C): -0.299 ± 0.38

GUCGAGCAAUAUUACGCCUC
self-splicing fitness (ln) (30 °C): -1.51 ± 0.23 | self-splicing fitness (ln) (37 °C): -0.868 ± 0.33

GUCGAGCAAUAUUACGGGCA
self-splicing fitness (ln) (30 °C): -2.65 ± 0.4 | self-splicing fitness (ln) (37 °C): -0.9 ± 0.18

GUCGAGCAAUAUUACGGGCU
self-splicing fitness (ln) (30 °C): -2.06 ± 0.23 | self-splicing fitness (ln) (37 °C): -1.53 ± 0.28

GUCGAGCAAUAUUACGGGGA
self-splicing fitness (ln) (30 °C): -2.91 ± 0.3 | self-splicing fitness (ln) (37 °C): -1.39 ± 0.24

GUCGAGCAAUAUUACGGGUC
self-splicing fitness (ln) (30 °C): -2.68 ± 0.39

GUCGAGCAAUAUUACGGUGU
self-splicing fitness (ln) (30 °C): -1.98 ± 0.087 | self-splicing fitness (ln) (37 °C): -1.14 ± 0.11

GUCGAGCAAUAUUACGUACA
self-splicing fitness (ln) (30 °C): -1.02 ± 0.15 | self-splicing fitness (ln) (37 °C): -0.719 ± 0.17

— the supplement of paper PMC7877785
